These are literature values, as cited in PMC12005733.

The target of the data set is Calbindin D9k C-terminal split part C-terminal half (Bos taurus) (UniProt P02633).

As usually defined, the Kd is the free concentration of one partner at which half of the binding sites on the other are occupied at equilibrium, for simple one-to-one binding. Turning to “Calbindin D9k N-terminal split part N-terminal half (from UniProt P02633)”, the Kd is 3 pM.
